Experimental data from paper PMC6393540, “A dual role in regulation and toxicity for the disordered N-terminus of the toxin GraT”.

Molecular target: Δ22GraT in Δ22GraT2A2 complex;GraA-His in Δ22GraT2A2 complex (Pseudomonas putida;Pseudomonas putida, UniProt Q88MI5;Q88MI6 23-92;1-99, del2-22|)
Assay: ITC; macroscopic; ITC: 50 mM Tris pH 8.0, 250 mM NaCl, 2 mM β-mercaptoethanol (TCEP in purification for ITC), 25 °C; EMSA: 5 µM DNA, 30 min at room temperature, 6% native PAGE in TBE on ice
Settings: protein: recombinant;recombinant; tags: ;C-terminal His6; chain copies: 2;2

B1: graTA operator wild type 33 bp (dsDNA)
DNA 1: AAATTAACGAATAACGTTAAGCATTCAGCTCAT
DNA 2: ATGAGCTGAATGCTTAACGTTATTCGTTAATTT
- Ka: 2.3e+15 M^-2
